Experimental findings from FireProtDB (doi:10.1021/bi035651x) are described below.

The labels stand for the following.
B1: Adenosine deaminase, P03958 (parent)
chain: MAQTPAFNKPKVELHVHLDGAIKPETILYFGKKRGIALPADTVEELRNIIGMDKPLSLPGFLAKFDYYMPVIAGCREAIKRIAYEFVEMKAKEGVVYVEVRYSPHLLANSKVDPMPWNQTEGDVTPDDVVDLVNQGLQEGEQAFGIKVRSILCCMRHQPSWSLEVLELCKKYNQKTVVAMDLAGDETIEGSSLFPGHVEAYEGAVKNGIHRTVHAGEVGSPEVVREAVDILKTERVGHGYHTIEDEALYNRLLKENMHFEVCPWSSYLTGAWDPKTTHAVVRFKNDKANYSLNTDDPLIFKSTLDTDYQMTKKDMGFTEEEFKRLNINAAKSSFLPEEEKKELLERLYREYQ

Values joined by “and” are separate entries in the source; they are usually repeats but may differ in a detail not shown here. Equal entries are not always repeated.

This data set covers variants of B1. To be noted: Mus musculus; pH 7.4; 20 °C; Urea; NMR; Tris-HCl 20 mM; structure 2ADA; whole UniProt chain shown.

On to W117F, for which the “ddG of mutation (higher = less stable)” value is -2.96 kcal/mol and -6.52 kcal/mol; the denaturant m value is 1.31 kcal/mol/M and 1.96 kcal/mol/M; the “denaturant midpoint (higher = more stable)” value (from here on “denaturant midpoint”) is 5.65 M and 5.59 M; the unfolding free energy was 7.4 kcal/mol and 11 kcal/mol.
Regarding W161F, the “ddG of mutation (higher = less stable)” value was -8.7 kcal/mol and -5.98 kcal/mol; the denaturant m value was 2.48 kcal/mol/M and 1.87 kcal/mol/M; the “denaturant midpoint” value is 5.3 M and 5.57 M; the unfolding free energy was 13.1 kcal/mol and 10.4 kcal/mol.
In the case of W272F, the denaturant m value is 1.05 kcal/mol/M and 2.25 kcal/mol/M; the “denaturant midpoint” value was 5.42 M and 5.58 M; the unfolding free energy is 5.69 kcal/mol and 12.6 kcal/mol.
